Patent publication US20230203146A1 (Boehringer Ingelheim, published 2023)
Like-named read-outs stand apart in the source and are kept apart here.

Columns and labels:
[1] = target: T1, N-terminally FLAG-tagged mouse Ang2 (HEK293T conditioned medium) (mouse, UniProt O35608 19-496); assay: competition ELISA, periplasmic extract, FLAG-mAng2 on mTie2/Fc
T1 construct: may be a nucleotide entry; also called mAng2; FLAG-mAng2
T1 sequence: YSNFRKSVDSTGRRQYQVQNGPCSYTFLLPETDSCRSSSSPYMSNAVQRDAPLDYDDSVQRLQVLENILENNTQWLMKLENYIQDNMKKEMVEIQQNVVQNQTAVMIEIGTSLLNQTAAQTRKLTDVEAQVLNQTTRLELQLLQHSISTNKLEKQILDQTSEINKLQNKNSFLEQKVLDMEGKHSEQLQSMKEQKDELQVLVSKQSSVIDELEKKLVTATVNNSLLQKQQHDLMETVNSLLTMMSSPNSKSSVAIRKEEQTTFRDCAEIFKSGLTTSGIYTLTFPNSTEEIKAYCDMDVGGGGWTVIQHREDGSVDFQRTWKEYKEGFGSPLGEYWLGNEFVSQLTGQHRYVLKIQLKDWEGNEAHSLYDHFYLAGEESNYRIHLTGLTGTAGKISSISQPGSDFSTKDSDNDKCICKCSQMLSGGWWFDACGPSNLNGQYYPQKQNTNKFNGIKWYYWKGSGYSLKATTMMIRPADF
Protocol: In brief, human Tie2/Fc chimera (R&D Systems, Minneapolis, Minn., USA) is biotinylated using N-hydroxysulfosuccinimide ester of biotin (Thermo Fisher Scientific, Rockford, Ill., USA). […] To this mixture, the Acceptor beads and 0.3 nM biotinylated human Tie2/Fc chimeras are added and further incubated for 2 hours at room temperature. Finally, streptavidin conjugated Donor beads (Perkin Elmer, Waltham, Mass., US) are added and the mixture is incubated for an additional 2 hours at room temperature. Assay buffer is PBS+0.03% Tween-20+0.1% BSA. Fluorescence is measured using the Envision Multilabel Plate reader (Perkin Elmer, Waltham, Mass., USA) using an excitation wavelength of 680 nm and an emission wavelength of 520 nm. […] In brief, human or mouse Tie2/Fc chimera (R&D Systems, Minneapolis, Minn., USA) are immobilized at 2 μg/mL overnight at 4° C. in a 96-well MaxiSorp plate (Nunc, Wiesbaden, Germany). Wells are blocked with a 1% casein solution. […] This mixture is added to the Tie2/Fc coated well and incubated for 2 hours at room temperature. Residual binding of Ang is detected using HRP-conjugated anti-FLAG M2 antibody (Sigma, St Louis, Mo., USA).

[2] = target: T1, N-terminally FLAG-tagged mouse Ang2 …; assay: competition ELISA, FLAG-mAng2 on coated mTie2-Fc
Protocol: (§1) In brief, 2 μg/mL of recombinant mouse Tie2-Fc or cyno Tie2-Fc is coated overnight at 4° C. in a 96-well MaxiSorp plate (Nunc, Wiesbaden, Germany). Coated wells are blocked with a 1% casein solution.

[3] = target: T1, N-terminally FLAG-tagged mouse Ang2 …; assay: competition ELISA, FLAG-mAng2 on coated mTie2-Fc; remark: listed apart in the source
Protocol: as §1

[4] = target: T2, recombinant cynomolgus Ang2-FLD (cynomolgus); assay: SPR (Biacore T100), binder on CM5 chip, Ang2-FLD as analyte
T2 construct: domain: FLD; also called cyno Ang2-FLD
Protocol: (§2) In brief, VHH and benchmark compounds are immobilized on a CM5 chip via amine coupling. […] Ang2-FLD species are allowed to associate for 2 min and to dissociate for 20 min at a flow rate of 45 μL/min. In between injections, the surfaces are regenerated with a 10 sec pulse of 25 mM NaOH and 60 sec stabilization period. Association/dissociation data are evaluated by fitting a 1:1 interaction model (Langmuir binding). The affinity constant KD is calculated from resulting association and dissociation rate constants kₐ and kd and are depicted in Table 8.

[5] = target: T3, recombinant mouse Ang2-FLD (mouse, UniProt O35608 275-496, limits assumed); assay: as above
T3 construct: domain: FLD
T3 sequence (looked up): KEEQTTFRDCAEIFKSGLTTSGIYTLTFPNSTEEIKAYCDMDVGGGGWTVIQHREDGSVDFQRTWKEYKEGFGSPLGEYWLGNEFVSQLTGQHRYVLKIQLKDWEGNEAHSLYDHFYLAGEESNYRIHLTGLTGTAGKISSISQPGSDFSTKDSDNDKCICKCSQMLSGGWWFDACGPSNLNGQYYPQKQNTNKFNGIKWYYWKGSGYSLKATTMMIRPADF
Protocol: as §2

[6] = target: T4, recombinant human Ang2-FLD (human, UniProt O15123 275-496, limits assumed); assay: as above
T4 construct: domain: FLD; not used
T4 sequence (looked up): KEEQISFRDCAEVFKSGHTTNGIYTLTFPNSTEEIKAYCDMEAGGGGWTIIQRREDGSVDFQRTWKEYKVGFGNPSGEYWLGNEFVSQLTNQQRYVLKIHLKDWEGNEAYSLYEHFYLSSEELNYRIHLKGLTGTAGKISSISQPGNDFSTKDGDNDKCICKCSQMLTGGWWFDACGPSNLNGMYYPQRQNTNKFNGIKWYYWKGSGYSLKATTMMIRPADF
Protocol: as §2

[7] = target: T5, N-terminally FLAG-tagged cynomolgus Ang2 (HEK293T conditioned medium) (cynomolgus, UniProt O15123 19-496 (human entry), limits assumed); assay: competition ELISA, FLAG-cAng2 on coated cTie2-Fc
T5 construct: may be a nucleotide entry; also called cAng2; FLAG-cAng2
T5 chain: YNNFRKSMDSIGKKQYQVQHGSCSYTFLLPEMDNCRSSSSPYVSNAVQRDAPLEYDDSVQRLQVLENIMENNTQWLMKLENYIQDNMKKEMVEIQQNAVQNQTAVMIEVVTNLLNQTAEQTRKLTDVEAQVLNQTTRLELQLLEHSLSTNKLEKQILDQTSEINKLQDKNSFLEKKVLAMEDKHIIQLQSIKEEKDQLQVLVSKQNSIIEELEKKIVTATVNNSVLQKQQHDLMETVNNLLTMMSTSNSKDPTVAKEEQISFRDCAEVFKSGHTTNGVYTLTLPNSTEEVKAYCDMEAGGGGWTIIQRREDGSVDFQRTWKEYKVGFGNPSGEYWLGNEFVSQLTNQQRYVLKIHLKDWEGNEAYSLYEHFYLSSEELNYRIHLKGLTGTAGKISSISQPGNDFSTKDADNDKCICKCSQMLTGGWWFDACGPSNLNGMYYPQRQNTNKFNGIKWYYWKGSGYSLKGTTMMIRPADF
Protocol: as §1

[8] = target: T6, FLAG-tagged cynomolgus Ang2 (cynomolgus, UniProt O15123 19-496 (human entry), limits assumed); assay: competition ELISA: FLAG-cAng2 binding to coated cTie2-Fc
T6 construct: N-terminally FLAG-tagged, conditioned medium of HEK293T cells; also called cAng2; FLAG-cAng2
T6 chain: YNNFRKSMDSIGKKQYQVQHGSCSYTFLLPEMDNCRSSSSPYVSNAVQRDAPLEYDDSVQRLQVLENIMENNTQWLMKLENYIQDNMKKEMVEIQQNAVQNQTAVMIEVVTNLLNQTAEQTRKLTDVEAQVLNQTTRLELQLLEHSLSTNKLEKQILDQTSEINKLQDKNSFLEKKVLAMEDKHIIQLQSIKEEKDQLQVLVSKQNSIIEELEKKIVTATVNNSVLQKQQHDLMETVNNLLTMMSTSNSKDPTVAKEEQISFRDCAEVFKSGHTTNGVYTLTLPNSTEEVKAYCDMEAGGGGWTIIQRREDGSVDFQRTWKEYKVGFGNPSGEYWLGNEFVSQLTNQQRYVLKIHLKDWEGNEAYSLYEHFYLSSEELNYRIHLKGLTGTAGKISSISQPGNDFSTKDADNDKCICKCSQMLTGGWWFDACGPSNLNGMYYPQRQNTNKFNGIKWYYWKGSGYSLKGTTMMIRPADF
Protocol: as §1

FLAG-tagged mouse Ang2 [9] = target: T7, FLAG-tagged mouse Ang2 (mouse, UniProt O35608 19-496); assay: competition ELISA: FLAG-mAng2 binding to coated mTie2-Fc
T7 construct: N-terminally FLAG-tagged, conditioned medium of HEK293T cells; also called mAng2; FLAG-mAng2
T7 sequence: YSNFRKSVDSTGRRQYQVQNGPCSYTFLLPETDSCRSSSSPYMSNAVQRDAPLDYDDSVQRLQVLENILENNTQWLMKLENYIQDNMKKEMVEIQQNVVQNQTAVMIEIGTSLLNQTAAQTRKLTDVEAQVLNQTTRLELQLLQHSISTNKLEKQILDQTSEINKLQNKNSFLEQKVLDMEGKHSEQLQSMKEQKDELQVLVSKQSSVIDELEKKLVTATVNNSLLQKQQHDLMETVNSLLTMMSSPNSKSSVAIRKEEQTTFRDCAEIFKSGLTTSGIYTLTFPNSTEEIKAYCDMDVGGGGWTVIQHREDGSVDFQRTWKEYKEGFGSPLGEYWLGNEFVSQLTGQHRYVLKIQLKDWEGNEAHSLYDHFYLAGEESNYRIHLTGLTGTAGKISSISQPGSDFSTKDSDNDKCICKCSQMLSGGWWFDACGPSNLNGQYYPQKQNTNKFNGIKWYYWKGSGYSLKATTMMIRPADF
Protocol: as §1

FLAG-tagged mouse Ang2 [10] = target: T7, FLAG-tagged mouse Ang2; assay: as above; remark: listed apart in the source
Protocol: as §1

[11] = target: T6, FLAG-tagged cynomolgus Ang2; assay: competition ELISA: FLAG-cAng2 binding to coated cTie2-Fc
Protocol: as §1

FLAG-tagged mouse Ang2 [12] = target: T7, FLAG-tagged mouse Ang2; assay: competition ELISA: FLAG-mAng2 binding to coated mTie2-Fc; remark: listed apart in the source
Protocol: as §1

[13] = target: T6, FLAG-tagged cynomolgus Ang2; assay: competition ELISA: FLAG-cAng2 binding to coated cTie2-Fc
Protocol: as §1

Binder	% inh [1] [%]	IC50 [2] [nM]	IC50 [3] [nM]	Kd [4] [nM]	koff [4] [s⁻¹]	kon [4] [M⁻¹ s⁻¹]	Kd [5] [nM]	koff [5] [s⁻¹]	kon [5] [M⁻¹ s⁻¹]	Kd [6] [nM]	koff [6] [s⁻¹]	kon [6] [M⁻¹ s⁻¹]	IC50 [7] [nM]	IC50 [8] [nM]	IC50 (FLAG-tagged mouse Ang2 [9]) [nM]	IC50 (FLAG-tagged mouse Ang2 [10]) [nM]	IC50 [11] [nM]	IC50 (FLAG-tagged mouse Ang2 [12]) [nM]	IC50 [13] [nM]
VHH 24B05 (VHH, also called 024B05; not shown: C-terminal c-myc tag and His6 tag) VHH: EVQLVESGGGLVQPGGSLRLSCAASGFTLDYYAIGWFRQAPGKEWEGVSCISSSDGSTYYADSVKGRFTISRDNAKNTVYLQMNSLKPEDTAVYYCATDSIVCGSYYGMDYWGKGTQVTVSS	98	1.5	1.1	0.59	0.0024	4.1e+06	1.7	0.0029	1.7e+06	0.96	0.0025	2.6e+06	2.1	–	–	–	–	–	–
VHH 00932 (VHH, not shown: small tags and cut ends, Cycle 3 variant of 28D10 on the 00908 backbone) VHH: EVQLVESGGGLVQPGGSLRLSCAVSGITLDDYAIGWFRQAPGKEREGVSSIRDNGGSTYYADSVKGRFTISSDNSKNTVYLQMNSLRPEDTAVYYCAAVPAGRLRYGEQWYPIYEYDAWGQGTLVTVSS	–	–	–	–	–	–	–	–	–	–	–	–	–	0.054	0.038	–	–	–	–
VHH 13A02 (VHH, also called 013A02; not shown: C-terminal c-myc tag and His6 tag) VHH: EVQLVESGGGLVQAGGSLRLSCAASGGTFSSYSMGWFRQAPGKEREFIAAINWNGDSTYYEDSVKGRFTVSRDNAKNTVYLQMNSLKPEDTAVYYCAATGWGRAYEQAYEYDVWGQGTQVTVSS	97	6.1	26.6	8.7	0.094	1.1e+07	18	0.034	1.9e+06	9.9	0.091	9.2e+06	33.1	–	–	–	–	–	–
VHH 11B07 (VHH, also called 011B07; not shown: C-terminal c-myc tag and His6 tag) VHH: EVQLVESGGGLVQVGDSLRLSCAASGRTFSTYLMVGWFRQAPGKEREFAAGIWSSGDTAYADSVRGRFTISRDNAKNTVYLQMNSLKTEDTAVYYCAGSYDGNYYIPGFYKDWGQGTQVTVSS	–	21	39.7	6.1	0.073	1.2e+07	29	0.14	4.8e+06	6.7	0.062	9.2e+06	24.8	–	–	–	–	–	–
VHH 37F02 (VHH, not shown: small tags and cut ends, Parental llama VHH; also called 037F02) VHH: EVQLVESGGGLVQPGGSLRLSCAASGFALDYYAIGWFRQAPGKEREGVSCISSSDGITYYVDSVKGRFTISRDNAKNTVYLQMNSLKPEDTAVYYCATDSGGYIDYDCMGLGYDYWGQGTQVTVSS	–	–	–	–	–	–	–	–	–	–	–	–	–	–	–	0.11	0.15	0.11	0.15
